The target of the data set is HvHsfB2c (Hordeum vulgare (barley) cv. Golden …, UniProt F4ZC69 1-362). The data set can be described thus: EMSA; 100 ng poly(dI-dC); EMSA as described previously (ref 24), with 100 ng poly(dI-dC); buffer, salt, pH and temperature not given. Conditions: protein: ivt; chain copies: 3; 5' overhang 4 nt (TCGA) on both strands, 40 bp duplex. Background: A gel shift assay detects complexes by their altered migration in electrophoresis.
HvHsfB2c, sequence (F4ZC69 entry or part of it): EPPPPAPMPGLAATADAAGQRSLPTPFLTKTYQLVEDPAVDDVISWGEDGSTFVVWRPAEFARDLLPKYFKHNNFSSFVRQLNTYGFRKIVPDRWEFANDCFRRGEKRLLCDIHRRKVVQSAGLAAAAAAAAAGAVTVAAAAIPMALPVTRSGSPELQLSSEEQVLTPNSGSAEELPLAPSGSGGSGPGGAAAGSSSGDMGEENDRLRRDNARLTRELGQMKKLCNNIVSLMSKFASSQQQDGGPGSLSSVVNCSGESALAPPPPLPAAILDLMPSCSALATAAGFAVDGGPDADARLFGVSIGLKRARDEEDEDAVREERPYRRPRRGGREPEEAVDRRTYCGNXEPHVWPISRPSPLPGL

B1: HSE-box fragment of HvsHsp17.5-CI promoter (HSE-1/HSE-2) (dsDNA)
DNA 1: TCGAACAACCCAAAATCCAAAAAATTCCACAACCCCAAAAAGGC
DNA 2: TCGAGCCTTTTTGGGGTTGTGGAATTTTTTGGATTTTGGGTTGT
As for B1, the binding result was “binds”.

The record behind these values is article PMC3942355, “Unraveling Regulation of the Small Heat Shock Proteins by the Heat Shock Factor HvHsfB2c in Barley: Its Implications in Drought Stress Response and Seed Development”.
